Measurements from US9526786B2, “Thermostabilization of proteins” (The Trustee of Columbia University in the City of New York, priority 2007, dated 2016).
Changes are numbered by the printed parent chain. Numbers in names are those of the source. Read-outs that look alike come from different tables or passages of the source.

T1: CocE (Rhodococcus sp., UniProt Q9L9D7)
T1 construct: 6xHis (C); made in house; host or cells: E. coli BL-21 Gold (DE3), pET-22b(+)
T1 sequence (Q9L9D7 1-574): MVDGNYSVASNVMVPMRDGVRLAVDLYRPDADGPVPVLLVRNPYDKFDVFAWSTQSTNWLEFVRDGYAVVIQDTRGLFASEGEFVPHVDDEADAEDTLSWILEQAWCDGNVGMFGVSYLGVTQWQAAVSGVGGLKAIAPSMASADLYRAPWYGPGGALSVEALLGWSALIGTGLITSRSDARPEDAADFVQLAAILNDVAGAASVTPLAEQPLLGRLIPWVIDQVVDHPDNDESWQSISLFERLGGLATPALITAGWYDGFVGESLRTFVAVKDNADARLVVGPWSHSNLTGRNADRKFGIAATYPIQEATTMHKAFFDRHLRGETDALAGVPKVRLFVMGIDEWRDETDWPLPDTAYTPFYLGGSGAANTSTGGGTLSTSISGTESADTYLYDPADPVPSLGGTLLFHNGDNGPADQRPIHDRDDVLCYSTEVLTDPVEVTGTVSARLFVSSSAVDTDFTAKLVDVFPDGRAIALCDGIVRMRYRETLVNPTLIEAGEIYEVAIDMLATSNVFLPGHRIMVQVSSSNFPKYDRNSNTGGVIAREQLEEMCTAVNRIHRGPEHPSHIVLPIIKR

T2: WT CocE (Rhodococcus sp., UniProt Q9L9D7)
T2 sequence (Q9L9D7 1-574): T1 sequence (Q9L9D7 1-574)

B1: T172R: CocE mutant (protein, listed as Rhodococcus sp.)
chain: T1 sequence (Q9L9D7 1-574) with T172R
B2: L169K: CocE mutant (protein, listed as Rhodococcus sp.)
chain: T1 sequence (Q9L9D7 1-574) with L169K

What was measured:
[1] = biological target: T1, CocE; format: biochemical, Rhodococcus sp. MB 1
Experimental: CocE is also able to cleave another substrate, 4-nitrophenyl acetate (FIG. 3). Cleavage is monitored by detection of the appearance of the 4-nitrophenol reaction product, which absorbs at 400 nm.
Further spectrophotometric analysis of cocaine stabilization was performed, by analyzing the ability of CocE to cleave 4-nitrophenyl acetate, after preincubation at 37° C. for various times, in the presence of various concentrations of cocaine. […] However, preincubation of CocE at the higher concentrations for various times at 37° C. indicated the enzyme was stabilized enough to be able to cleave the 4-nitrophenyl substrate (FIG. 5).

[2] = biological target: T2, WT CocE; conditions: excess benzoic acid; 5× molarity phenylboronic acid; 6031818
Experimental: Further characterization of the stability of wild type (WT) CocE and thermostable mutants was performed through circular dichroism, which detects small changes in protein conformation and structure. Analysis by repeated CD measurements at increasing temperatures allows analysis of the thermodynamics and melting temperature (TM) of the protein, so long as the melting is reversible (i.e. the protein resumes it's original conformation upon cooling). […] However CD is still of value in determining the temperature to unfolding.

[3] = biological target: T1, CocE; format: biochemical, Rhodococcus sp. MB 1; remark: listed apart in the source
Experimental: (§1) Analysis of CocE action on cocaine cleavage is performed by utilizing the spectroscopic properties of cocaine, which maximally absorbs light at a 240 nm wavelength. CocE activity is measured by monitoring for a decrease in signal at A240, using various concentrations of cocaine, and determining the initial rate of the decrease. From these values the Vmax of the enzyme can be determined. By pre-incubating the enzyme at 37° C. for various times before monitoring for activity, the half life of CocE at 37° C. can be calculated.
(§2) The initial rates (of decay) were determined by following the change in the intrinsic absorbance of cocaine at 240 nm (6700 M^1 cm^1)(Xie et al., 1999) using a SpectraMax Plus 384 UV plate reader (Molecular Devices, Sunnyvale, Calif.) using SOFTmax Pro software (Version 3.1.2). The reaction was initiated by adding 100 μL of a 2× enzyme solution (100 mM phosphate buffer, pH 7.4 and 300 mM NaCl) to 100 μL of a 2× cocaine solution (50 μg/mL enzyme, 100 mM Phosphate Buffer, pH 7.4 and 300 mM NaCl). All assays were performed with 100 μM DTT unless indicated otherwise. Final cocaine concentrations were as follows: 125, 62.5, 31.25, 15.63, 7.81, 3.91, 1.95, and 0.977 μM. Vmax and Km values were calculated using Prism (GraphPad Software, San Diego). For stability measurements, wild type and mutant enzymes were diluted to 2× concentration and incubated at 37° C. for the times indicated. At the end of each time point, an aliquot was removed and kinetic behavior was observed as outlined above.
(§3) In vitro kinetic assays. […] Initial rates were then used to determine Michaelis-Menten parameters. To assess thermal stability, enzyme preparations were preincubated at 37° C. for various lengths of time, prior to measurement of residual activities (Table 1 and FIG. 23).

[4] = biological target: T1, CocE; assay: Screen for stabilization of CocE: 1 hour at 37° C., then 4-nitrophenyl acetate cleavage; format: biochemical, Rhodococcus sp. MB 1; conditions: forty compounds tested
Experimental: However all of these small molecules inhibited enzyme activity to certain degrees. It was evaluated whether there might exist a small molecule that could prevent CocE aggregation, without inhibiting enzyme activity. Such a molecule could be used as a stabilizer in vitro, e.g., during enzyme preparation, and in vivo. An assay was designed to screen a library of 20,000 small molecules for stabilization of CocE. In that assay, the enzyme is mixed with the compounds in a 96-well plate format, and then incubated at 37° C. for one hour. […] After 37° C. incubation, the enzyme/compound mixtures are tested for the ability to cleave 4-nitrophenyl acetate (FIG. 8). Only compounds stabilized would be able to cleave after this incubation period.
Forty compounds were first tested. The compounds were assayed in duplicate with appropriate controls. A duplicate plate (without enzyme) was performed as a negative control, to check for compounds able to cause an increase in 400 nm absorbance in the absence of CocE. […] Some were able to do this in the absence of CocE. These were discarded as false positives.
FIG. 9 is a plot of the initial rate of 4-nitrophenyl acetate cleavage for all compounds, after the background “no enzyme” cleavage was subtracted. […]

[5] = Circular dichroism melting temperature of CocE proteins alone; format: physicochemical; conditions: for melting temperature: circular dichroism, enzyme alone
[6] = tested on: cocaine-induced lethality; assay: In vivo potency of protection against cocaine-induced lethality; parameters: species or system NIH-Swiss mice; conditions: for protection against cocaine-induced lethality: i.v. pretreatment 1 min prior to i.p. cocaine
[7] = Michaelis-Menten kinetics of cocaine hydrolysis (absorbance at 240 nm); format: biochemical; conditions: cocaine
Experimental: as §2, §3
Determination of Catalytic Efficiency. To determine the catalytic activity a spectrophometric assay was performed. Samples of L169K/G173Q CocE were added to a 96-well UV permeable plate containing increasing cocaine concentrations (0.5, 2.5, 5, 12.5, 25, 50, 100, and 150 μM) to give a final concentration of 10 ng/ml CocE in a final volume of 200 μl. The change in absorbance at 240 nm was measured over 20 minutes, with readings every 10 seconds, by a SpectraMax Plus 384 UV plate reader (Molecular Devices, Sunnyvale, Calif.) using SOFTmax Pro software (Version 3.1.2). The change in absorbance was converted to the change in concentration and furthermore the rate of decay per mole enzyme is determined (Kcat). Kcat and Km of the enzyme are determined using Prism (GraphPad software, San Diego).

[8] = Experimental: as §1
as §2, with “Final cocaine concentrations were as follows: 125, 62.5, 31.25, 15.63, 7.81, 3.91, 1.95, and 0.977 μM. Vmax and Km values were calculated using Prism (GraphPad Software, San Diego).” left out
as §3

[9] = tested on: cocaine-induced lethality; assay: In vivo duration of protection against cocaine-induced lethality; parameters: species or system NIH-Swiss mice; conditions: 1 mg i.v.; cocaine 180 mg/kg i.p.
Experimental: In vivo protection against cocaine lethality. Male NIH-Swiss mice (25-32 g) were obtained from Harlan Inc. (Indianapolis, Ind.) and were housed in groups of 6 mice per cage. All mice were allowed ad libitum access to food and water, and were maintained on a 12-h light-dark cycle with lights on at 06.30 AM in a room kept at a temperature of 21-22° C. Experiments were performed in accordance with the Guide for the Care and Use of Laboratory Animals as adopted and promulgated by the National Institutes of Health. The experimental protocols were approved by the University Committee on the Use and Care of Animals at the University of Michigan.
Cocaine-induced toxicity was characterized by the occurrence of lethality, as defined by the cessation of observed movement and respiration. Mice were placed individually in Plexiglas observation chambers (16×28×20 cm high) to be habituated for 15 min before drug administration. Following intra-peritoneal (i.p.) cocaine administration, the mouse was immediately placed individually in the same chamber for observation. The presence or absence of lethality was recorded for 60 min following cocaine administration. The mouse was placed in a small restraint chamber (Outer tube diameter: 30 mm; Inner tube diameter: 24 mm) that left the tail exposed. The tail was cleansed with an alcohol wipe and a 30G1/2 precision glide needle (Fisher Scientific, Pittsburgh, Pa.) was inserted into one of the side veins for infusion. The i.v. injection volume of CocE or CocE mutant was 0.2 mL per mouse. Sterile gauze and pressure were applied to the injection site to staunch the bleeding.
Lethality was monitored following injection at 1, 5, 10, or 30 min, or 1, 2, 3, 4, 5 hours after enzyme administration. Each treatment used 8 mice to assess the percent of lethality (i.e., protection) in mice pretreated with a single dose of an esterase at a single time point.
These values were used to compare the degree of rightward shifts of cocaine's dose-response curve in the absence or presence of the enzyme pretreatment. In the time course study, a time point for duration of protection (i.e., 50% of lethality) was estimated by using each time course curve crossing 50% occurrence of lethality.
Evaluation of in vivo half life. CocE is administered IV to the tail vein in a volume of 0.2 ml. Animals are challenged with 180 mg/kg cocaine delivered intraperitoneally at a given time after CocE administration.

[10] = cocaine: 62.5 and 125 μM, benzoic acid: higher concentrations

| Molecule | inhibition of 4-nitrophenyl acetate cleavage [1] [µM] | inhibition of 4-nitrophenyl acetate cleavage [1, 10] | melting temperature of WT CocE in presence of compound [2] [°C] | inhibition of cocaine cleavage [3] | effectiveness in stabilization screen [4] | melting temperature higher than the WT [5] | melting temperature [5] [°C] | protection against cocaine-induced lethality [6] | Kcat(mol · s^−1 · mol^−1) [7] [mol · s^−1 · mol^−1] | Stability @ 37 (t1/2) [8] [h] | half-life / τinact of activity at 37° C. [8] [h] | t1/2 [8] [h] | LT50, pretreatment time to 50% lethality [9] [h] | rightward shift in the cocaine dose-response curve ([6]; enzyme 1 mg (30 mg/kg) i.v.) | increase in Km [7] [fold] | plateau of catalytic activity, percent of maximal ([8]; 37° C., after greater than 8 hr / t=10 hours) |
| --- | --- | --- | --- | --- | --- | --- | --- | --- | --- | --- | --- | --- | --- | --- | --- | --- |
| CCOc1ccccc1N(CC(=O)N1CCCCC1)S(=O)(=O)c1ccccc1 [compound 6031818] | 16 | weak inhibitor | ~42 | does not inhibit | most effective |  |  |  |  |  |  |  |  |  |  |  |
| COc1ccc(OC)c(N(CC(=O)N2CCCCC2)S(=O)(=O)c2ccccc2)c1 [compound 6169221] |  | did not inhibit |  | did not inhibit | effective |  |  |  |  |  |  |  |  |  |  |  |
| B1 |  |  |  |  |  | 2-3 degrees | ~42 | protected | 2502 | ~0.767 | 0.767 | 0.78 | ~1.8 |  |  |  |
| B2 |  |  |  |  |  |  | ~65 | protected | 3104 | ~4.57 | 4.57 | 4.57 | ~3.3 | 6-7 fold | ~5 | approximately 35% |
